From patent publication US20240279325A1 (Chugai, published 2024)
Numbering of substitutions follows the chain as printed. Blank lines part the entries; values can stand above or below the binder they belong to.

How the values were obtained:
[1] = biological target: T1, mouse FcγRIV (mouse, UniProt A0A0B4J1G0 21-203); assay: SPR (Biacore)
T1 construct: also called mFcγRIV; not shown: purification tag of the soluble receptor (probably a His tag)
T1 sequence: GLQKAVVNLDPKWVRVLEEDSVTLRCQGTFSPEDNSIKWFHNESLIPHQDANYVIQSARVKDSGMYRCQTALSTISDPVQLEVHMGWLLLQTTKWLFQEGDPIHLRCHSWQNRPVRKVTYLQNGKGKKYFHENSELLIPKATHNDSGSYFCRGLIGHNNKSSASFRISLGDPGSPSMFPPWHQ

[2] = biological target: T2, mouse FcγRI (mouse, UniProt P26151 25-297); assay: SPR (Biacore)
T2 construct: also called mFcγRI
T2 sequence (looked up): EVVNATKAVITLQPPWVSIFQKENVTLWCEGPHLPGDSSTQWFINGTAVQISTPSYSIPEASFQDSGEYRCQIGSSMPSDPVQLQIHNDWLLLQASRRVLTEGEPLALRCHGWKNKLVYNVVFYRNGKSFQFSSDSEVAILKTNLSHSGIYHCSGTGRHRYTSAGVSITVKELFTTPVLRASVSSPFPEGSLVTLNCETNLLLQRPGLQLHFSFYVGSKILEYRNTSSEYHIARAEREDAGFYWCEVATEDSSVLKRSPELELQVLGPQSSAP

[3] = biological target: T3, human FcγRIIb extracellular domain with C-terminal His tag (human, UniProt P31994 43-217); assay: ratio of SPR KDs (FcγRIIaR over FcγRIIb)
T3 sequence: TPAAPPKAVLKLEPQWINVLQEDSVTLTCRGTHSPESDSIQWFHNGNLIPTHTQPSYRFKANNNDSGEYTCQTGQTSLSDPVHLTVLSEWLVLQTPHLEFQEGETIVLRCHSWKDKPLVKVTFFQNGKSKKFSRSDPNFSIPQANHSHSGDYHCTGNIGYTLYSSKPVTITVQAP

[4] = biological target: T4, human FcγRIIa type R (allotype R131) extracellular domain with C-terminal His tag (human, UniProt P12318 34-217); assay: ratio of SPR KDs, reference IL6R-B3/IL6R-L
T4 construct: also called FcγRIIaR
T4 chain: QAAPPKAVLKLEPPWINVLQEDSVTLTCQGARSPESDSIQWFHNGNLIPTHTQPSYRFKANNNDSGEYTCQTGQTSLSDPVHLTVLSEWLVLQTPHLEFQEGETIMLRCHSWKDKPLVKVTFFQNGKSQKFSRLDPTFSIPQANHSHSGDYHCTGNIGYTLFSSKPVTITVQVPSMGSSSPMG

[5] = biological target: T3, human FcγRIIb extracellular domain with …; assay: ratio of SPR KDs, reference IL6R-B3/IL6R-L
[6] = biological target: human FcγRIa extracellular domain with C-terminal His tag (human, UniProt P12314 16-292); assay: SPR (Biacore), captured antibody, FcγR analyte
Chain of human FcγRIa extracellular domain with C-terminal His tag (P12314 16-292): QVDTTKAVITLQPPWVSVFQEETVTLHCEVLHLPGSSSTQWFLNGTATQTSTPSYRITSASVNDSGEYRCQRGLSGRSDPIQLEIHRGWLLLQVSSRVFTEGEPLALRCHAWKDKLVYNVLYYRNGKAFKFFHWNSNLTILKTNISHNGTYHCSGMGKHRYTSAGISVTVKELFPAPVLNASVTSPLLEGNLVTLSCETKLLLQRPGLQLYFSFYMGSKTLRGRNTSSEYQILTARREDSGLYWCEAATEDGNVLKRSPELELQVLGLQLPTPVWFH

[7] = biological target: T4, human FcγRIIa type R (allotype R131) …; assay: SPR (Biacore), captured antibody, FcγR analyte
[8] = biological target: T3, human FcγRIIb extracellular domain with …; assay: SPR (Biacore), captured antibody, FcγR analyte
[9] = biological target: T5, human FcγRIIIa type V (allotype V158) extracellular domain with C-terminal His tag (human, UniProt P08637 17-208); assay: SPR (Biacore), captured antibody, FcγR analyte
T5 construct: also called FcγRIIIaV; FcγRIIIa V type
T5 sequence (P08637 other isoform, or with tags, fused parts or gaps): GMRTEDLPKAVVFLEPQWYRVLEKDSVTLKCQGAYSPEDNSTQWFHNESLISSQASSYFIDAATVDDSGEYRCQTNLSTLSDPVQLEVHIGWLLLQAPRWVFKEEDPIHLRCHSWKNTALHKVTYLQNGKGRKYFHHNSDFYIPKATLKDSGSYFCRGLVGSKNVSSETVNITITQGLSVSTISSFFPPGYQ

[10] = biological target: T6, human FcγRIIa type H (allotype H131) extracellular domain with C-terminal His tag (human, UniProt P12318 34-217); assay: SPR (Biacore), captured antibody, FcγR analyte
T6 construct: also called FcγRIIaH
T6 sequence: T4 chain with R133H

[11] = biological target: T7, FcγRIIb extracellular region (human, UniProt P31994 43-217); assay: SPR (Biacore), ratio of KD values
T7 construct: extracellular domain; for crystals expressed with kifunensine and trimmed with Endo F1; also called human FcγRIIb
T7 sequence (looked up): T3 sequence

[12] = biological target: T8, FcγRIIaR extracellular region (human, UniProt P12318 34-217); assay: SPR (Biacore), ratio of KD values
T8 construct: extracellular domain; also called FcγRIIa type R; FcγRIIa allotype R131
T8 sequence (looked up): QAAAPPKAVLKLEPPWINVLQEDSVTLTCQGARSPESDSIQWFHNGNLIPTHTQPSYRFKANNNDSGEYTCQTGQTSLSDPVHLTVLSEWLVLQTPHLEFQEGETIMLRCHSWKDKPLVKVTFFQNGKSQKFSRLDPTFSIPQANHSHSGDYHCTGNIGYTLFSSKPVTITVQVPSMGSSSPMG

[13] = biological target: T9, FcγRIIb extracellular domain with C-terminal His tag (human, UniProt P31994 43-217); assay: SPR (Biacore), antibody captured, FcγR as analyte
T9 construct: extracellular domain
T9 sequence (looked up): T3 sequence

[14] = biological target: T10, FcγRIa extracellular domain with C-terminal His tag (human, UniProt P12314 16-292); assay: SPR (Biacore), antibody captured, FcγR as analyte
T10 construct: extracellular domain
T10 sequence (P12314 16-292): as the sequence (P12314 16-292) above

[15] = biological target: T11, FcγRIIIa type V (allotype V158) extracellular domain with C-terminal His tag (human, UniProt P08637 17-208); assay: SPR (Biacore), antibody captured, FcγR as analyte
T11 construct: extracellular domain; also called FcγRIIIaV; FcγRIIIa V type
T11 sequence (P08637 17-208 F176V): as the sequence (P08637 other isoform, or with tags, fused parts or gaps) above, with S179A counted along it

[16] = biological target: T12, FcγRIIa type R (allotype R131) extracellular domain with C-terminal His tag (human, UniProt P12318 34-217); assay: SPR (Biacore), antibody captured, FcγR as analyte
T12 construct: extracellular domain; also called FcγRIIaR; FcγRIIa R type
T12 sequence (looked up): T8 sequence (looked up)

[17] = biological target: T13, human FcRn (human, UniProt P55899 24-290; P61769 21-119, limits assumed); assay: SPR Biacore, pH 7.0
T13 construct: also called human neonatal Fc receptor
Procedure: (§1) The binding between the antibody and human FcRn under a neutral condition (pH 7.0) was analyzed with a BIACORE™ system.

[18] = biological target: T14, human FcRn (human, UniProt P55899 24-290; P61769 21-119, limits assumed); assay: SPR (Biacore), pH 7.0
T14 construct: also called hFcRn
Procedure: as §1

B2: IL6R-BP478/IL6R-L (antibody)
heavy: QVQLQESGPGLVKPSETLSLTCAVSGHSISHDHAWSWVRQPPGEGLEWIGFISYSGITNYNPSLQGRVTISRDNSKNTLYLQMNSLRAEDTAVYYCARSLARTTAMDYWGEGTLVTVSSASTKGPSVFPLAPCSRSTSESTAALGCLVKDYFPEPVTVSWNSGALTSGVHTFPAVLQSSGLYSLSSVVTVPSSSLGTKTYTCNVDHKPSNTKVDKRVESKYGPPCPPCPAPDLLGDDSVFLFPPKPKDTLMISRTPEVTCVVVDVSDEDGEVKFNWYVDGVEVHNAKTKPREEQDNSTYRVVSVLTVLHQDWLNGKEYKCKVSNKALPRPIEKTISKAKGQPREPQVYTLPPSRDELTKNQVSLTCLVKGFYPSDIAVEWESNGQPENNYKTTPPVLDSDGSFFLYSKLTVDKSRWQQGNVFSCSVMHEALHNHYTQESLSLSP
light: not shown
notes: copies: 2 + 2
KD(IIaR)/KD(IIb) [3]: 28
KD(IIaR) of parent polypeptide/KD(IIaR) of altered polypeptide [4]: 2
KD(IIb) of parent polypeptide/KD(IIb) of altered polypeptide [5]: 161
Kd [6]: 7.7 nM
Kd [7]: 540 nM
Kd [8]: 19 nM
Kd [9]: 35000 nM
Kd [10]: 6700 nM

B3: IL6R-BP478/IL6R-L (antibody)
heavy: B2 heavy
light: not shown
notes: copies: 2 + 2
fold binding relative to IL6R-BP230/IL6R-L [11]: 1.1 times
fold binding relative to IL6R-BP230/IL6R-L [12]: 0.9 times

B5: F414 (antibody, human IgG1, kappa)
heavy: QVQLQESGPGLVKPSETLSLTCAVSGHSISHDHAWSWVRQPPGEGLEWIGFISYSGITNYNPSLQGRVTISRDNSKNTLYLQMNSLRAEDTAVYYCARSLARTTAMDYWGEGTLVTVSSASTKGPSVFPLAPSSKSTSGGTAALGCLVKDYFPEPVTVSWNSGALTSGVHTFPAVLQSSGLYSLSSVVTVPSSSLGTQTYICNVNHKPSNTKVDKKVEPKSCDKTHTCPPCPAPELLGGPSVFLFPPKPKDTLMISRTVEVTCVVVDVSHEDPEVKFNWYVDGVEVHNAKTKPREEQYNSTYRVVSVLSVLHQDWLNGKEYKCKVSNKALPAPIEKTISKAKGQPREPQVYTLPPSRDELTKNQVSLTCLVKGFYPSDIAVEWESNGQPENNYKTTPPVLDSDGSFFLYSKLTVDKSRWQQGNVFSCSVLHEALHYHYTQKSLSLSP
light: not shown
notes: copies: 2 + 2
Kd [17]: 110 nM

B6: F554 (antibody, human IgG1, kappa)
heavy: B5 heavy with S241K, M254Y, S256T, V259P, S309T, V310P, L430M
light: not shown
notes: copies: 2 + 2
Kd [18]: 28 nM

More lines, now with the values ahead:

binding result [1]: no binding
binding result [2]: no binding
B1: VH3/L (WT)-mIgG1 (antibody)
heavy: QVQLQESGPGLVKPSETLSLTCAVSGHSISHDHAWSWVRQPPGEGLEWIGFISYSGITNYNPSLQGRVTISRDNSKNTLYLQMNSLRAEDTAVYYCARSLARTTAMDYWGEGTLVTVSSAKTTPPSVYPLAPGSAAQTNSMVTLGCLVKGYFPEPVTVTWNSGSLSSGVHTFPAVLQSDLYTLSSSVTVPSSTWPSETVTCNVAHPASSTKVDKKIVPRDCGCKPCICTVPEVSSVFIFPPKPKDVLTITLTPKVTCVVVDISKDDPEVQFSWFVDDVEVHTAQTQPREEQFNSTFRSVSELPIMHQDWLNGKEFKCRVNSAAFPAPIEKTISKTKGRPKAPQVYTIPPPKEQMAKDKVSLTCMITDFFPEDITVEWQWNGQPAENYKNTQPIMDTDGSYFVYSKLNVQKSNWEAGNTFTCSVLHEGLHNHHTEKSLSHSPGK
light: not shown
notes: copies: 2 + 2

Kd [13]: 11 nM
Kd [14]: 0.0067 nM
Kd [15]: 3600 nM
Kd [16]: 2.1 nM
B4: IL6R-BP253/IL6R-L (antibody, human IgG1, kappa, name in EU numbering)
heavy: B5 heavy with V259P, S269E, S309T, L330F, L430M, Y436N, K441E
light: not shown
notes: comparison control with existing alterations; copies: 2 + 2
